Entries after “also recorded” stand apart in the source; their conditions may differ.
Experiments:
N18 cells = assay: Neurite outgrowth assay in N18 cells; format: cell-based; conditions: immobilized proteins coated at 500 μg/ml, 17 hours (FIG. 3A)
Method: FIG. 3A is a graph showing that neurite outgrowth in N18 cells is induced by immobilized laminin (Ln), immobilized TS and immobilized fragments of TS. Proteins were immobilized by incubating plates which contained wells filled with solutions of the proteins (protein concentration was 500 μg/ml) at 4° C. overnight. The protein solutions were removed and the plates were further incubated with 1% BSA at room temperature for one hour. N18 cells were cultured in the coated wells in serum-free RPMI-1640/0.2% BSA for 17 hours, and neurite outgrowth was measured by phase-contrast microscopy. […] Ln, laminin; TS, purified T. cruzi trans-sialidase; 7F, recombinant TS from clone 7F; 19Y, recombinant TS from clone 19Y; TS-F, recombinant fragment consisting of amino acid residues 33-666 of TS (SEQ ID NO:2); TS-CC-47, recombinant fragment consisting of amino acid residues 79-478 of TS (SEQ ID NO:2); TS-Cat-47, recombinant fragment consisting of amino acid residues 79-415 of TS (SEQ ID NO:2); BSA, bovine serum albumin.
96-well microtiter plates were coated overnight at 4° C. with the TS or peptides or fragments thereof, or with control proteins laminin (Ln) or bovine serum albumin (BSA) at 500 μg/ml. After removing the compounds, the plates were further incubated with 1% BSA for 1 hour at room temperature and immediately used as substratum for PC12 or N18 (Prasad, K. N., Biol Rev Camb Philos Soc, 66:431-451 (1991)) cells in serum-free RPMI/0.2% BSA. Neurite outgrowth was measured using a phase-contrast microscope 17 hours later.

PC12 cells = assay: Trophic factor withdrawal-induced apoptosis of PC12 cells (DAPI/TUNEL); format: cell-based, rat; conditions: serum-free RPMI-1640/0.2% BSA, 17 hours, DAPI or TUNEL
In short: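 PC12 cells were washed and plated at 2×10^5/ml in serum-free RPMI/0.2% BSA on collagen, with or without test agents. Apoptosis was scored by DAPI nuclear staining (300-400 cells counted) or TUNEL. Protection was calculated as 100% − (apoptosis% with agent ÷ apoptosis% in RPMI alone)×100%; wortmannin or LY294002 was added after 24 h, with DAPI read 24 h later.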

human Schwann cells = assay: Serum withdrawal-induced apoptosis of immortalized human Schwann cells (DAPI); format: cell-based
Akt kinase in PC12 cells = assay: Immunodetection of activated Akt (Ser 473) in PC12 cells; format: cell-based, rat; conditions: 100 ng/ml, 2, 5 or 10 minutes; phospho-Akt (Ser 473) antibody
Method: PC12 cells were deprived of serum for 24-48 hours, stimulated with TS, TS-F or LTR for 2, 5 or 10 minutes and immediately lysed with 2% SDS. In studies using the PI-3 kinase inhibitor, LY294002 (LY), cells were pre-treated with the inhibitor (1 μM) for 30 min prior to the addition of TS-F or TS. The proteins in the cell lysate were separated in SDS-10% polyacrylamide gels, transferred to nitrocellulose membrane (Bio-Rad) and the phosphorylated form of protein kinase Akt was detected with phospho-Akt (Ser 473) antibody (New England BioLabs, Beverly, Mass.), followed by alkaline phosphatase-conjugated secondary antibody (Promega, Madison, Wis.). Bands corresponding to phospho-Akt (60 kDa) were quantified using a scanning densitometer (Bio-Rad).

[1] = test system: human bladder carcinoma T-24 cell line; assay: IL-6 secretion by T-24 carcinoma cells (ELISA); format: cell-based; conditions: 24 hours culture
Method: Primary cultures of human intestinal microvascular endothelial cells (HIMEC) isolated from normal jejunal mucosa/submucosal tissue were prepared as described (Strong et al., Gastroenterology 114: 1244-1256 (1998)). The HIMEC were cultured in fibronectin-coated plasticware in MCDB medium (Sigma) supplemented with 20% FBS, 90 μg/ml heparin and 50 μg/ml endothelial cell growth factor (Sigma). T-24 cells (ATCC Accession No. HTB-4) were cultured in M199 medium supplemented with 10% FBS. PBMC were purified by Ficoll-Paque gradient as described (Current Protocols in Immunology, pp 7.1.1-7.1.2). Vero cells (ATCC Accession No. CCL-81) were grown in RPMI medium with 5% Nu serum and infected with the Silvio X-10/4 of T. cruzi as described previously (Chuenkova et al., J. Exp. Med. 181: 1693-1703, (1995)).
Endothelial cells and T-24 cells were plated on 24-well plates at a density of 1×10^3 cells/well, while peripheral blood mononuclear cells (PBMC) were plated in the similar wells at 1×10^6/well. Triplicat cultures of cells were incubated test agents for a predetermined amount of time. […] Cytokines and chemokines released in the culture supernatants were measured by ELISA assay following the instructions of the manufacturer (Endogen). The cytokines tested were IL-1β, IL-4, IL-8, IL-10, IL-12, IFN-γ, TNF-α, and the chemokines RANTES and MCP-1. Negative controls were cells incubated in medium containing polymixin B at 10 μg/ml, and positive controls were cells incubated with bacterial LPS at the low ng/ml range (for PBMC or HIMEC) or in the μg/ml range for carcinoma T-24 cells. In some experiments, IL-1β, or TNFα were used as positive control for cytokine release.

B1: TS-F: recombinant full catalytic domain of TS, amino acid residues 33-666, His-tagged, expressed in E. coli (protein, listed as Trypanosoma cruzi)
chain: ETQIAIKNSRVSSVSRVVDPTVIVKGNKLYVLVGSYYSSRSYWSSHGDARDWDILLAVGEVTKSTAGGKITASIKWGSPVSLKKFFPAEMEGMHTNQFLGGAGVAIVASNGNLVYPVQVTNKRKQVFSKIFYSEDDGKTWKFGKGRSDFGCSEPVALEWEGKLIINTRVDWKRRLVYESSDMEKPWVEAVGTVSRVWGPSPKSNQPGSQTSFTAVTIEGMRVMLFTHPLNFKGRCVRDRLNLWLTDNQRIYNVGQVSIGDENSAYSSVLYKDDKLYCLHEINTDEVYSLVFARLVGELRIIKSVLRSWKNWTATCPAFAPLLIQPLRRQRVVVVPLSPRLVLLAFCRQRLPKRMGGSYRCVNASTANAERVRNGLKFAGVGGGALWPVSQQGQNQRYRFANHAFTLVASVTIHEAPRAASPLLGASLDSSGGKKLLGLSYDEKHQWQPIYGSTPVTPTGSWETGKRYHLVLTMANKIGSVYIDGELLEGSGQTVVPDGRTPDISHFYVGGYKRSDMPTISHVTVNNVLLYNRRQLNTEEIRTLFLSQDLIGTEAHMDSSSDSSAHSTPSTPADSSAHSTPSTPVDSSAHSTPSTPADSSAHGTPSTPVDSSAHGTPSTPADSSAHGTPSTPVDS
modifications: His tag
notes: recombinant full catalytic domain of TS, amino acid residues 33-666, His-tagged, expressed in E. coli
- neurite outgrowth in N18 cells (N18 cells): induced neurite outgrowth to about the same extent as the intact enzyme
- protection of PC12 cells from apoptosis induced by trophic factor withdrawal (PC12 cells): survival being induced
- fragmented nuclei in serum-starved Schwann cells transfected with empty vector (neo) (human Schwann cells; CD 500 ng/ml): decreased the number of fragmented nuclei by about ten-fold
- survival of Schwann cells transfected with PTEN mutant pG129R (human Schwann cells; CD 500 ng/ml): did not detectably enhance
- protection of Schwann cells from apoptosis compared with 2% serum (human Schwann cells; CD 500 ng/ml (6 nM) in serum-free DMEM, 72 hours, listed as CD): nearly as effective as 2% serum
- survival of control Schwann cells transfected with GFP vector (human Schwann cells; CD 500 ng/ml, serum-free 48 hours): did increase survival
- survival of Schwann cells over expressing kinase-inactive Akt (AktKI) (human Schwann cells; CD 500 ng/ml, serum-free 48 hours, listed as CD): did not increase survival; also recorded: did not promote survival
- rescue from apoptosis of Schwann cells over expressing PTEN (human Schwann cells; CD 500 ng/ml, listed as CD): did not rescue cells from apoptotic death
- inhibition of serum withdrawal-induced apoptosis of human Schwann cells (human Schwann cells; serum-free DMEM, 24-72 hours, DAPI, listed as CD): protected Schwann cells against apoptosis; also recorded: protected human Schwann cells from apoptosis; also recorded: dose-dependent inhibition
- phosphorylation/activation of Akt kinase in PC12 cells (Akt kinase in PC12 cells): effective in activating Akt
- IL-6 secretion by T-24 cells [1]: did not promote IL-6 release

Source: patent US8114412B2, “T. cruzi-derived neurotrophic agents and methods of use therefor” (priority 1999, dated 2012)
